Key:
[1] = target: E. coli PAPS reductase (E. coli); test: SEC; Superdex 200 gel filtration; 50 mM Tris-HCl (pH 8.0), 10% glycerol, 5 mM DTT, ionic strength adjusted to 150 mM with NaCl; column calibrated with protein standards; no change in retention volume when DTT was omitted
[2] = target: the molecule itself; test: as above

| Molecule | stoichiometry N [1] | stoichiometry N [2] |
| --- | --- | --- |
| E. coli PAPS reductase (enzyme) | 2 |  |
| P. aeruginosa APS reductase (enzyme, UniProt O05927 1-267, looked up, APS reductase of P. aeruginosa, gene amplified from P. aeruginosa genomic DNA ATCC 47085D; Cloned into pET24b or pET14b; source: E. coli BL21(DE3), purified (HiTrap Chelating, Superdex 200 gel filtration)) MLPFATIPATERNSAAQHQDPSPMSQPFDLPALASSLADKSPQDILKAAFEHFGDELWISFSGAEDVVLVDMAWKLNRNVKVFSLDTGRLHPETYRFIDQVREHYGIAIDVLSPDPRLLEPLVKEKGLFSFYRDGHGECCGIRKIEPLKRKLAGVRAWATGQRRDQSPGTRSQVAVLEIDGAFSTPEKPLYKFNPLSSMTSEEVWGYIRMLELPYNSLHERGYISIGCEPCTRPVLPNQHEREGRWWWEEATHKECGLHAGNLISKA |  | 4 |
